Common to all, as to experiment: cell-based or functional assay
The target in experiment [1] is T1, full-length human Robo 4 (on cells) (human, UniProt Q8WZ75 28-1007).
T1 sequence: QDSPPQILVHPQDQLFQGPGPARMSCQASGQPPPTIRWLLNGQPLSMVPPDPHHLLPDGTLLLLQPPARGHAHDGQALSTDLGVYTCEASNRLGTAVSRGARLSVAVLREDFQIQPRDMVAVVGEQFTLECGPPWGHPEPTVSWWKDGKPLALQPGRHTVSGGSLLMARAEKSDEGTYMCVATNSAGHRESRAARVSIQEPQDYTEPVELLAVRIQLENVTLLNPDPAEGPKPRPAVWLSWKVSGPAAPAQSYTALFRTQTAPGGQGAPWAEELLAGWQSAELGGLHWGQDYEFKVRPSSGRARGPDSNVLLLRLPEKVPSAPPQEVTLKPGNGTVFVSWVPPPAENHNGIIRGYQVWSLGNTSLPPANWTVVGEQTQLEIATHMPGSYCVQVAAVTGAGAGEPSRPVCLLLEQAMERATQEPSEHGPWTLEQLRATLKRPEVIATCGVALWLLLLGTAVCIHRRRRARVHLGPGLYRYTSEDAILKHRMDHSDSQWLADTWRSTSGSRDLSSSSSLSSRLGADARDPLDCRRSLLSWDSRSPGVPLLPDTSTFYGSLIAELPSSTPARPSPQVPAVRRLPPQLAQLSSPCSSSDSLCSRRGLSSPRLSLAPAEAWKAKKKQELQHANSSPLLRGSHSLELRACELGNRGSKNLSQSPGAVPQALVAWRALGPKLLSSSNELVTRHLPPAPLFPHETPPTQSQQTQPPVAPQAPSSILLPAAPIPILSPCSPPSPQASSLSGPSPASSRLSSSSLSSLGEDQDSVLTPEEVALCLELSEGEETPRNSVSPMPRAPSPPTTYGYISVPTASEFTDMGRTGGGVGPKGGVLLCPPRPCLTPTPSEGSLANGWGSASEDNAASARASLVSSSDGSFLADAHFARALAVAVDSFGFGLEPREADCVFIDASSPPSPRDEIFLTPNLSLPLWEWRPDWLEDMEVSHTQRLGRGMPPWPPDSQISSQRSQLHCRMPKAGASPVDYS

Experiment [2] deals with T1, full-length human Robo 4 (on cells). The source holds these as a separate data set.
Experiment [3] concerns the target T2, mouse Robo 4 on MS-1 mouse endothelial cells (mouse, UniProt Q8C310 28-1012).
T2 sequence: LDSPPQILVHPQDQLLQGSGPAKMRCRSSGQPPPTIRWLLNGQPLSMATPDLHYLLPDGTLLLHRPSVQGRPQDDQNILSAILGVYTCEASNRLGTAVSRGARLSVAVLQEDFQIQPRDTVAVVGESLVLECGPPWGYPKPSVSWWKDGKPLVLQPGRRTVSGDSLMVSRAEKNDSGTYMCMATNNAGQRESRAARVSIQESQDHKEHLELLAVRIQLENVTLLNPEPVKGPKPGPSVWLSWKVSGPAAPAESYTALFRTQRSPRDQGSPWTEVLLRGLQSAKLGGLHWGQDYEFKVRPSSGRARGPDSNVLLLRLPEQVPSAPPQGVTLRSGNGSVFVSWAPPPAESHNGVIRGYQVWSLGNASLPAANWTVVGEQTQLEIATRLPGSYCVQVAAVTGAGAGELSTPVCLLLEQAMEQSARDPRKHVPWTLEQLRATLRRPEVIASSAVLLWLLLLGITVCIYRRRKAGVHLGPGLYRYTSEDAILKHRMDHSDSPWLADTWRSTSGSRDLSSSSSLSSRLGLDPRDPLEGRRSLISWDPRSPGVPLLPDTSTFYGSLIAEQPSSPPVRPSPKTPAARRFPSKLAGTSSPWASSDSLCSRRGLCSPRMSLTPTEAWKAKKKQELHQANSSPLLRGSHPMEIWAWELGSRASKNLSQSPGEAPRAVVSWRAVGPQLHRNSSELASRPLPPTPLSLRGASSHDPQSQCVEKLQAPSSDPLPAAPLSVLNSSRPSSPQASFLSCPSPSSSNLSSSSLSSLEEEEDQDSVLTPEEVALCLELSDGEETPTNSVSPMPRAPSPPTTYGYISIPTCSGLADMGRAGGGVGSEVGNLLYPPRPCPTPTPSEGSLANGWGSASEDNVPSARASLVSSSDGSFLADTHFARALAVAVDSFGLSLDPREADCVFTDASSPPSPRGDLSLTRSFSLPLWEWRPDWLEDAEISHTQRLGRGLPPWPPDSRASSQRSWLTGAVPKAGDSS

The target of experiment [4] is T1, full-length human Robo 4 (on cells). The source holds these as a separate data set.
The target of experiment [5] is T2, mouse Robo 4 on MS-1 mouse endothelial …. The source holds these as a separate data set.

Data on 5 molecules can be found in patent US20180282410A1 (Hoffmann-La Roche, published 2018).

Read-outs that look alike come from different tables or passages of the source.

B1: Molecule B, 1+1 CrossFab-IgG (VH/VL exchange in CD3 binder, CD3 binder V9, Robo 4 binder 01F05) (bispecific antibody)
chain 1: not shown
chain 2: QLVLTQSPSASASLGASVKLTCTLSSQHSSYGITWLQQHPDKAPKYVMYLKSDGSHTKGADIPDRFSGSSSGVHRYLSISNVQPEDEAIYFCVTYDSTHVFGSGTQLTVLGQPKAAPSVTLFPPSSEELQANKATLVCLISDFYPGAVTVAWKADSSPVKAGVETTTPSKQSNNKYAASSYLSLTPEQWKSHRSYSCQVTHEGSTVEKTVAPTECS
chain 3: EVQLVESGGGLVQPGGSLRLSCAASGYSFTGYTMNWVRQAPGKGLEWVALINPYKGVSTYNQKFKDRFTISVDKSKNTAYLQMNSLRAEDTAVYYCARSGYYGDSDWYFDVWGQGTLVTVSSASVAAPSVFIFPPSDEQLKSGTASVVCLLNNFYPREAKVQWKVDNALQSGNSQESVTEQDSKDSTYSLSSTLTLSKADYEKHKVYACEVTHQGLSSPVTKSFNRGEC
chain 4: DKTHTCPPCPAPEAAGGPSVFLFPPKPKDTLMISRTPEVTCVVVDVSHEDPEVKFNWYVDGVEVHNAKTKPREEQYNSTYRVVSVLTVLHQDWLNGKEYKCKVSNKALGAPIEKTISKAKGQPREPQVCTLPPSRDELTKNQVSLSCAVKGFYPSDIAVEWESNGQPENNYKTTPPVLDSDGSFFLVSKLTVDKSRWQQGNVFSCSVMHEALHNHYTQKSLSLSPGK
For the molecule B1, in experiment [1], the “EC50 of T-cell mediated killing of HUVECs (LDH release, human pan T cells, E:T 5:1, 22 h)” value was 0.164 nM. Moreover, in experiment [2], the “EC50 of T-cell mediated killing of HUVECs (LDH release, human PBMCs, E:T 10:1), 24 h” value (shortened to “EC50 of T-cell mediated killing of HUVECs … 24 h”) turned out to be 1.61 nM and the “EC50 of T-cell mediated killing of HUVECs (LDH release, human PBMCs, E:T 10:1), 48 h” value (from here on “EC50 of T-cell mediated killing of HUVECs … 48 h”) was determined as 1.55 nM. Also, the “EC50 of T-cell mediated killing of MS-1 cells (LDH release, human pan T cells, E:T 5:1, 17 h)” value in experiment [3] is 0.115 nM.

B2: Molecule I, 1+1 Fab-CrossFab (VH/VL exchange in CD3 binder, CD3 binder V9, Robo 4 binder 01F09) (bispecific antibody)
chain 1: QIQLQESGPGLVKPSQSLSLTCSVTGYSISSGSLWTWIRQFPGNNLEWMGYISYAGGIDYNPSLTSRISITRDTSRNQFFLQLESVTTQDTATYYCATPGGYPFHFDYWGQGTMVTVSSASTKGPSVFPLAPSSKSTSGGTAALGCLVKDYFPEPVTVSWNSGALTSGVHTFPAVLQSSGLYSLSSVVTVPSSSLGTQTYICNVNHKPSNTKVDKKVEPKSCDGGGGSGGGGSDIQMTQSPSSLSASVGDRVTITCRASQDIRNYLNWYQQKPGKAPKLLIYYTSRLESGVPSRFSGSGSGTDYTLTISSLQPEDFATYYCQQGNTLPWTFGQGTKVEIKSSASTKGPSVFPLAPSSKSTSGGTAALGCLVKDYFPEPVTVSWNSGALTSGVHTFPAVLQSSGLYSLSSVVTVPSSSLGTQTYICNVNHKPSNTKVDKKVEPKSC
chain 2: QPVLTQSPSASASLGASVKLTCTLNSQFSTYNIGWYQQHRDKPPKYVMFVKGDGGHSKADGIPDRFSGSSSGADRYLTISNIQAEDEAIYFCGADYNNAGQYGCVFGSGTHFTVLGQPKAAPSVTLFPPSSEELQANKATLVCLISDFYPGAVTVAWKADSSPVKAGVETTTPSKQSNNKYAASSYLSLTPEQWKSHRSYSCQVTHEGSTVEKTVAPTECS
chain 3: B1 chain 3
Turning to B2, the “EC50 of T-cell mediated killing of HUVECs (LDH release, human pan T cells, E:T 5:1, 22 h)” value in experiment [1] stood at 0.198 nM. Moreover, the “EC50 of T-cell mediated killing of MS-1 cells (LDH release, human pan T cells, E:T 5:1, 17 h)” value in experiment [3] was 4.56 nM.

B3: Molecule G, 1+1 Fab-CrossFab (VH/VL exchange in CD3 binder, CD3 binder V9, Robo 4 binder 01E06) (bispecific antibody)
chain 1: EVQLVESGGGLSQPGNSLKLSCEASGFTFRNYDMSWVRQAPGKGLEWVAYISSGGGPIYYVDAVKGRFTISRDNAKNLLFLQMNNLRSEDTAVYYCARDLADIGVFDYWGQGTMVTVSSASTKGPSVFPLAPSSKSTSGGTAALGCLVKDYFPEPVTVSWNSGALTSGVHTFPAVLQSSGLYSLSSVVTVPSSSLGTQTYICNVNHKPSNTKVDKKVEPKSCDGGGGSGGGGSDIQMTQSPSSLSASVGDRVTITCRASQDIRNYLNWYQQKPGKAPKLLIYYTSRLESGVPSRFSGSGSGTDYTLTISSLQPEDFATYYCQQGNTLPWTFGQGTKVEIKSSASTKGPSVFPLAPSSKSTSGGTAALGCLVKDYFPEPVTVSWNSGALTSGVHTFPAVLQSSGLYSLSSVVTVPSSSLGTQTYICNVNHKPSNTKVDKKVEPKSC
chain 2: DFKMTQSPDILSPSLGESVTITCQSSQNIYSNLAWYQQKPGEHPKLLIYTASILADGIPSRFTGSGSGTQFSLKISSLQPDDVANYYCQQYVYYRTFGPGTKLEIKRTVAAPSVFIFPPSDEQLKSGTASVVCLLNNFYPREAKVQWKVDNALQSGNSQESVTEQDSKDSTYSLSSTLTLSKADYEKHKVYACEVTHQGLSSPVTKSFNRGEC
chain 3: B1 chain 3
In the case of B3, the “EC50 of T-cell mediated killing of HUVECs (LDH release, human pan T cells, E:T 5:1, 22 h)” value in experiment [1] amounted to 0.036 nM. Further, the “EC50 of T-cell mediated killing of MS-1 cells (LDH release, human pan T cells, E:T 5:1, 17 h)” value in experiment [3] came to 0.352 nM.

B4: Molecule F, 2+1 CrossFab-IgG (VH/VL exchange in CD3 binder, CD3 binder V9, Robo 4 binders 01F05) (bispecific antibody)
chain 1: not shown
chain 2: QVQLKQSGAELVKPGASVKISCKTSVYTFTYGYMHWVEQKPGQGLEWIGRIDPDSGNSMYNQKFQGRATLTRDKSSSTVYMELRSLTSEDSAVYYCARSMRYSGYRDYALDLWGQGTQVTVSSASTKGPSVFPLAPSSKSTSGGTAALGCLVKDYFPEPVTVSWNSGALTSGVHTFPAVLQSSGLYSLSSVVTVPSSSLGTQTYICNVNHKPSNTKVDKKVEPKSCDKTHTCPPCPAPEAAGGPSVFLFPPKPKDTLMISRTPEVTCVVVDVSHEDPEVKFNWYVDGVEVHNAKTKPREEQYNSTYRVVSVLTVLHQDWLNGKEYKCKVSNKALGAPIEKTISKAKGQPREPQVCTLPPSRDELTKNQVSLSCAVKGFYPSDIAVEWESNGQPENNYKTTPPVLDSDGSFFLVSKLTVDKSRWQQGNVFSCSVMHEALHNHYTQKSLSLSPGK
chain 3: B1 chain 2
chain 4: B1 chain 3
B4: in experiment [4], the “EC50 of T-cell mediated killing of HUVECs … 24 h” value turned out to be 0.104 nM and the “EC50 of T-cell mediated killing of HUVECs … 48 h” value stood at 0.154 nM. Further, in experiment [5], the “EC50 of T-cell mediated killing of MS-1 cells (LDH release, human PBMCs, E:T 10:1), 24 h” value was about 0.164 nM and the “EC50 of T-cell mediated killing of MS-1 cells (LDH release, human PBMCs, E:T 10:1), 48 h” value stood at 0.196 nM. Further, in experiment [2], the “EC50 of T-cell mediated killing of HUVECs … 24 h” value came to 0.065 nM and the “EC50 of T-cell mediated killing of HUVECs … 48 h” value was found to be 0.322 nM.

B5: Molecule C, 1+1 CrossFab-IgG (VH/VL exchange in CD3 binder, CD3 binder V9, Robo 4 binder 01E06) (bispecific antibody)
chain 1: not shown
chain 2: B3 chain 2
chain 3: B1 chain 3
chain 4: B1 chain 4
For B5, the “EC50 of T-cell mediated killing of HUVECs (LDH release, human pan T cells, E:T 5:1, 22 h)” value in experiment [1] is 0.046 nM. The “EC50 of T-cell mediated killing of MS-1 cells (LDH release, human pan T cells, E:T 5:1, 17 h)” value in experiment [3] stood at 0.472 nM.
